Data reported in patent publication US8541200B2, “Cleavage of fusion proteins using Granzyme B protease” (Hoffmann-La Roche Inc., priority 2003, dated 2013).
“Also recorded” adds a separate entry of the source.

Legend:
[1] = target: FXa (Bos taurus, UniProt P00743); assay: Cleavage of fusion proteins by FXa, SDS PAGE; format: biochemical, bovine; settings: protease:fusion protein 1:1000, 23° C.
Procedure: (§1) Both H6-IEPD-RAP (SEQ ID NO: 23) and H6-IEGR-RAP were in 100 mM HEPES pH 7.4 and the following incubations were set up at room temperature, 23° C., with the protease:fusion protein ratio 1:1000: • 1. […] 400 μl (app. 400 μg) H6-GrB-RAP+2 μl GrB-H6 (app. 0.4 μg)
250 μl (app. 400 μg) H6Ubi-IEPD-ApoA1+0.4 μg GrB-H6 C228F • 2.

[2] = Colorimetric Granzyme B activity assay with Ac-IEPD-pNA (absorbance at 405 nm); format: biochemical; settings: for Granzyme B activity ΔOD405/min: pro-IEGR-GrB-H6 incubated with FXa at 4° C.; for completion of self-activation: 4° C., without addition of previously activated Granzyme B; for ΔOD405/min (self-activation): 100 mM HEPES pH 7.5
Procedure: GrB-H6 activity was measured using the following mix: 500 μl buffer, 2 μl 100 mM Ac-IEPD-pNA, and 5 μl GrB-H6.
Recombinant self-activating human Granzyme B derivatives IEPD-GrB-H6 and IEAD-GrB-H6 were produced as described in Example 2 by using the expression vectors pT7-IEPD-GrB-H6 and pT7-IEAD-GrB-H6 described in Example 1. The IEAD-GrB-H6 and IEPD-GrB-H6 proteins were eluted from the SP Sepharose columns and stored at 4° C. for 2 days before the activity of the respective top fractions were determined by using a colorimetric assay. For this purpose the following was mixed: 500 μl buffer (100 mM HEPES pH 7.5), 2 μl 100 mM Ac-IEPD-pNA, and 5 μl protein solution. The change in absorption was then determined at 405 nm during 3 min. The activity was further determined after additional incubation for 1 and 2 days at 4° C.
The activity of the activated and purified GrB-H6 was measured in different buffers using the Ac-IEPD-pNA substrate: 500 μl buffer, 2 μl 100 mM Ac-IEPD-pNA, and 5 μl GrB-H6. The ΔOD405/min was calculated from the first 0.75 min unless otherwise noted.

[3] = target: T1, GrB-H6 (Homo sapiens, UniProt P10144, R55Q); assay: Cleavage of fusion proteins by GrB-H6, SDS PAGE; format: biochemical; settings: for fusion protein cleaved at IEPD↓ and internal AQPD↓ site: 10 μl GrB-H6, no Ca^2+
T1 construct: MGSIEGR (N, cleaved yes); made in house; host or cells: E. coli BL21
Procedure: (§2) The fusion protein H6-TripUB IEPD↓SP (SEQ ID NO: 22) (prepared as described in Example 7) eluted from the Ni^2+-NTA-agarose column was gel filtrated into 100 mM HEPES pH 7.5 and 200 μl samples of the top-fraction was incubated at room temperature with either 0, 1 or 10 μl of activated GrB-H6 (approximately 0, 0.2 and 2 μg GrB-H6).
With the H6-TripUB IEPD↓SP (SEQ ID NO: 22) fusion protein the following nine incubations (Table 9) were set up using 200 μl H6-TripUB IEPD↓SP (SEQ ID NO: 22) and 5 μl GrB-H6 (approximately 1 μg GrB-H6) for each incubation.
as §2, with “H6-IEPD-RAP” for “H6-TripUB IEPD↓SP”, “23)” for “22)”, “7.4” for “7.5”, “GrB-H6). Samples for SDS PAGE were taken after 5, 23 and 26 hours of incubation, see FIG. 10.” for “GrB-H6).”
as §1
The fusion protein H6-IEPD-TN123 (SEQ ID NO: 25) (prepared as described in Example 7) eluted from the Q Sepharose was after final purification gel filtrated into 100 mM HEPES pH 7.5, and 200 μl samples of the top-fraction was incubated at room temperature with either 0, 1 or 10 μl of activated GrB-H6 (approximately 0, 0.2 and 2 μg GrB-H6) both with and without 5 mM CaCl2 present. Samples for SDS PAGE from the incubations without CaCl2 were taken after 12, 19 and 24 hours as well as 5 days of incubation. Samples for SDS PAGE from the incubations both with and without CaCl2 were taken after approximately 20 and 48 hours of incubation, see FIG. 14.
Each of the fusion proteins eluted from the Ni^2+-NTA-agarose column were gel filtrated into 100 mM HEPES pH 7.4 and fractions of approximately the same concentration of the five different H6-TripUB variants were used. The five variants were H6-TripUB IEPD↓SP (SEQ ID NO: 22), H6-TripUB IQAD↓SP (SEQ ID NO: 26), H6-TripUB IQAD↓SG (SEQ ID NO: 27), H6-TripUB VGPD↓SP (SEQ ID NO: 28) and H6-TripUB VGPD↓FG (SEQ ID NO: 29). Of each fusion protein 200 μl was incubated at room temperature, 23° C., with 5 μl of activated GrB-H6 (approximately 1 μg GrB-H6). The protease:fusion protein ratio was thereby 1:500.

Sequence of FXa (P00743 234-492 limits assumed): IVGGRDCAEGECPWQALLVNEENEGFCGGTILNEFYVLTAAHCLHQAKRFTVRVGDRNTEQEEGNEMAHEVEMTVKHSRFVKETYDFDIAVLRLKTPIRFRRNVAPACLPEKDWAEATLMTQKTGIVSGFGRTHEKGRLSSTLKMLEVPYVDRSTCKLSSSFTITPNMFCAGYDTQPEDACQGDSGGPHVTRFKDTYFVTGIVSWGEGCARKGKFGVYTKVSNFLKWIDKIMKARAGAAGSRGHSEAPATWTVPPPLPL
Sequence of FXa (P00743 41-180 partner limits assumed): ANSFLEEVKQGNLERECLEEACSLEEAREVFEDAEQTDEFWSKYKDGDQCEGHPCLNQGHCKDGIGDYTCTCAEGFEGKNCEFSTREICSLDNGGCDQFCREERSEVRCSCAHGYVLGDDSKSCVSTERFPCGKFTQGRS

H6-IEGR-RAP: FXa cleavable hexa-His RAP fusion protein with recognition sequence IEGR
correctly cleaved product left ([1]; 27 hours): no correctly cleaved product left | fusion protein correctly cleaved ([1]; ½ hour): almost all of the fusion protein has been cleaved

pro-IEGR-GrB-H6: pro-Granzyme B fusion protein with FXa recognition sequence IEGR and C-terminal hexa-His tag, SEQ ID NO:1
Granzyme B activity ΔOD405/min ([2]; 0 hours): 0.0073 ΔOD405/min | Granzyme B activity ΔOD405/min ([2]; 2 hours): 0.0200 ΔOD405/min | Granzyme B activity ΔOD405/min ([2]; 5 hours): 0.0250 ΔOD405/min | Granzyme B activity ΔOD405/min ([2]; 19 hours): 0.0829 ΔOD405/min | Granzyme B activity ΔOD405/min ([2]; 2 days (45 hours)): 0.1325 ΔOD405/min | Granzyme B activity ΔOD405/min ([2]; 5 days (120 hours)): 0.1832 ΔOD405/min

B1: H6-IEPD-RAP: hexa-His RAP fusion protein with Granzyme B recognition site IEPD, SEQ ID NO. 23 (protein)
chain: MGSHHHHHHGSIEPDYSREKNQPKPSPKRESGEEFRMEKLNQLWEKAQRLHLPPVRLAELHADLKIQERDELAWKKLKLDGLDEDGEKEARLIRNLNVILAKYGLDGKKDARQVTSNSLSGTQEDGLDDPRLEKLWHKAKTSGKFSGEELDKLWREFLHHKEKVHEYNVLLETLSRTEEIHENVISPSDLSDIKGSVLHSRHTELKEKLRSINQGLDRLRRVSHQGYSTEAEFEEPRVIDLWDLAQSANLTDKELEAFREELKHFEAKIEKHNHYQKQLEIAHEKLRHAESVGDGERVSRSREKHALLEGRTKELGYTVKKHLQDLSGRISRARHNEL
modifications: H6-IEPD-RAP
GrB-sensitive sites in RAP ([3]; 19 possible sites (19 Asp residues)): only one GrB-sensitive site | fusion protein cleaved ([3]; 200 μl fusion protein + 1 or 10 μl GrB-H6, room temperature, 5 hours): all the H6-IEPD-RAP (SEQ ID NO: 23) has been cleaved to give the final product; also recorded: all the H6-IEPD-RAP (SEQ ID NO: 23) was cleaved to give the final product | fusion protein correctly cleaved ([3]; protease:fusion protein 1:1000, 23° C., ½ hour): nearly all the H6-IEPD-RAP (SEQ ID NO: 23) has been cleaved correctly

B2: IEPD-GrB-H6: self-activating human pro-Granzyme B with IEPD recognition site and C-terminal H6, SEQ ID NO:2 (protein)
chain: MGSIEPDIIGGHEAKPHSRPYMAYLMIWDQKSLKRCGGFLIQDDFVLTAAHCWGSSINVTLGAHNIKEQEPTQQFIPVKRPIPHPAYNPKNFSNDIMLLQLERKAKRTRAVQPLRLPSNKAQVKPGQTCSVAGWGQTAPLGKHSHTLQEVKMTVQEDRKCESDLRHYYDSTIELCVGDPEIKKTSFKGDSGGPLVCNKVAQGIVSYGRNNGMPPRACTKVSSFVHWIKKTMKRYLNSHHHHHH
modifications: C-terminal His6 tag; pro-IEPD-GrB-H6
completion of self-activation [2]: not completed until after a least three or four days | ΔOD405/min (self-activation) ([2]; stored at 4° C. 2 days): 0.1284 ΔOD405/min | ΔOD405/min (self-activation) ([2]; stored at 4° C. 3 days): 0.1375 ΔOD405/min | ΔOD405/min (self-activation) ([2]; stored at 4° C. 4 days): 0.1351 ΔOD405/min

B3: IEAD-GrB-H6: self-activating human pro-Granzyme B with IEAD recognition site and C-terminal H6, SEQ ID NO:3 (protein)
chain: MGSIEADIIGGHEAKPHSRPYMAYLMIWDQKSLKRCGGFLIQDDFVLTAAHCWGSSINVTLGAHNIKEQEPTQQFIPVKRPIPHPAYNPKNFSNDIMLLQLERKAKRTRAVQPLRLPSNKAQVKPGQTCSVAGWGQTAPLGKHSHTLQEVKMTVQEDRKCESDLRHYYDSTIELCVGDPEIKKTSFKGDSGGPLVCNKVAQGIVSYGRNNGMPPRACTKVSSFVHWIKKTMKRYLNSHHHHHH
modifications: pro-IEAD-GrB-H6
completion of self-activation [2]: not completed until after a least three or four days | ΔOD405/min (self-activation) ([2]; stored at 4° C. 2 days): 0.1372 ΔOD405/min | ΔOD405/min (self-activation) ([2]; stored at 4° C. 3 days): 0.1607 ΔOD405/min | ΔOD405/min (self-activation) ([2]; stored at 4° C. 4 days): 0.1983 ΔOD405/min

B4: H6-IEPD-TN123: hexa-His Tetranectin (TN123) fusion protein with Granzyme B recognition site IEPD, SEQ ID NO. 25 (protein)
chain: MGSHHHHHHGSIEPDGEPPTQKPKKIVNAKKDVVNTKMFEELKSRLDTLAQEVALLKEQQALQTVCLKGTKVHMKCFLAFTQTKTFHEASEDCISRGGTLSTPQTGSENDALYEYLRQSVGNEAEIWLGLNDMAAEGTWVDMTGARIAYKNWETEITAQPDGGKTENCAVLSGAANGKWFDKRCRDQLPYICQFGIV
modifications: H6-IEPD-TN123
internal cleavage at AQPD↓ site ([3]; 5 mM Ca^2+ added): no internal cleavage is observed | fusion protein cleaved at IEPD↓ and internal AQPD↓ site ([3]; 2 days): almost all the fusion protein has been cleaved twice | fusion protein cleaved at IEPD↓ and internal AQPD↓ site ([3]; 5 days): almost all of the fusion protein has been cleaved twice | fusion protein correctly cleaved ([3]; 200 μl fusion protein + 10 μl GrB-H6, 5 mM Ca^2+, 12 hours): approximately 40% | sites cleaved ([3]; no Ca^2+ present): cleaved correctly at the IEPD sequence, but also just as rapidly at an internal site of the sequence AQPD
